Test results reported in paper PMC3229572.
Values joined by “and” are separate entries in the source; they are usually repeats but may differ in a detail not shown here. Equal entries are not always repeated.

Target: recombinant full length M2 protein of influenza virus A/Hong Kong/8/68 (H3N2) (influenza A virus A/Hong Kong/8/68 (H3N2))

Substance: recombinant full length M2 protein of influenza virus A/Hong Kong/8/68 (H3N2) (natural protein)
- stoichiometry N: 4 and 8
